Measurements published in article PMC10397247.
Each block holds one binder with its values, some of them ahead of it.

Assays:
Assay in all cases: two-hybrid library CCNG1;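 note: natural log of median RNA to DNA barcode read ratio; higher means stronger binding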
O3-bS = target: T1, O3-bS
T1 chain: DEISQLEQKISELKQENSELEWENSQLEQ

O8-bS = target: T2, O8-bS
T2 chain: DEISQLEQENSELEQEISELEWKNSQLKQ

O16-bS = target: T3, O16-bS
T3 chain: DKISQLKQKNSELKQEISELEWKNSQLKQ

O7-bS = target: T4, O7-bS
T4 chain: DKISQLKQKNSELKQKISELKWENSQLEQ

O5-bS = target: T5, O5-bS
T5 chain: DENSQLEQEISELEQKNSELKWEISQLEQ

O6-bS = target: T6, O6-bS
T6 chain: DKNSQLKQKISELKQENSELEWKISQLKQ

O2-bS = target: T7, O2-bS
T7 chain: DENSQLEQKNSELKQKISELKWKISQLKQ

O4-bS = target: T8, O4-bS
T8 chain: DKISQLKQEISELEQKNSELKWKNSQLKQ

P6mSN = target: T9, P6mSN
T9 chain: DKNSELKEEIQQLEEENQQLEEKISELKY

P5mSN = target: T10, P5mSN
T10 chain: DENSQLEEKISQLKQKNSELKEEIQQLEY

P7mSN = target: T11, P7mSN
T11 chain: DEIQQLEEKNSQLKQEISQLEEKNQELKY

P8mSN = target: T12, P8mSN
T12 chain: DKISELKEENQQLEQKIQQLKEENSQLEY

4H363-bN = target: T13, 4H363-bN
T13 chain: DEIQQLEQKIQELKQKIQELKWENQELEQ

4H3907-bN = target: T14, 4H3907-bN
T14 chain: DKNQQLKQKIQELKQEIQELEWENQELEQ

4H3961-bN = target: T15, 4H3961-bN
T15 chain: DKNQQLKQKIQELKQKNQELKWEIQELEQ

4H470-bN = target: T16, 4H470-bN
T16 chain: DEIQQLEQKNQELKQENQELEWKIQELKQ

4H3497-bA = target: T17, 4H3497-bA
T17 chain: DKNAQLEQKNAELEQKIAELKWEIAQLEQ

4H3277-bA = target: T18, 4H3277-bA
T18 chain: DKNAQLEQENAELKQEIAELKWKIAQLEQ

4H3175-bA = target: T19, 4H3175-bA
T19 chain: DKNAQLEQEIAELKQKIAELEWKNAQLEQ

4H3462-bA = target: T20, 4H3462-bA
T20 chain: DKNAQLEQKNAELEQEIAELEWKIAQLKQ

4H3628-bA = target: T21, 4H3628-bA
T21 chain: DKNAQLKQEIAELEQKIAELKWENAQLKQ

4H3974-bA = target: T22, 4H3974-bA
T22 chain: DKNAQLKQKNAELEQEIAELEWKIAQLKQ

4H3298-bA = target: T23, 4H3298-bA
T23 chain: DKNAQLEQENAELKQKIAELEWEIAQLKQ

4H1899-bA = target: T24, 4H1899-bA
T24 chain: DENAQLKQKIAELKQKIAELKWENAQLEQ

4H906-bA = target: T25, 4H906-bA
T25 chain: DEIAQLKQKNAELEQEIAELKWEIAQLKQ

4H3858-bA = target: T26, 4H3858-bA
T26 chain: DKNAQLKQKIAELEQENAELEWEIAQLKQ

4H3926-bA = target: T27, 4H3926-bA
T27 chain: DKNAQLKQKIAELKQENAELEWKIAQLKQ

4H3162-bA = target: T28, 4H3162-bA
T28 chain: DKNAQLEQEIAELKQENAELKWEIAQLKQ

4H3613-bA = target: T29, 4H3613-bA
T29 chain: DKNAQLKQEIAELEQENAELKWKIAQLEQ

4H570-bA = target: T30, 4H570-bA
T30 chain: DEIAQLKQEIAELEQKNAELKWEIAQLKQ

4H2586-bN = target: T31, 4H2586-bN
T31 chain: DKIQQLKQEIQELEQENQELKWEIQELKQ

4H626-bA = target: T32, 4H626-bA
T32 chain: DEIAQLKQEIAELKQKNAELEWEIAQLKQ

4H1985-bA = target: T33, 4H1985-bA
T33 chain: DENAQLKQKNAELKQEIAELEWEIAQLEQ

4H591-bA = target: T34, 4H591-bA
T34 chain: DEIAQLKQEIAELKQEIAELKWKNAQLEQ

4H850-bA = target: T35, 4H850-bA
T35 chain: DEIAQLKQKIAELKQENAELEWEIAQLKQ

4H3817-bA = target: T36, 4H3817-bA
T36 chain: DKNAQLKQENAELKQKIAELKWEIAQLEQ

4H470-bH = target: T37, 4H470-bH
T37 chain: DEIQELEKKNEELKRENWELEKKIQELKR

4H3907-bH = target: T38, 4H3907-bH
T38 chain: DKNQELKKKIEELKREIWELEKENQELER

4H4038-bH = target: T39, 4H4038-bH
T39 chain: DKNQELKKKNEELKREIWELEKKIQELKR

4H3961-bH = target: T40, 4H3961-bH
T40 chain: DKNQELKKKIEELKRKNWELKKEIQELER

4H3129-bA = target: T41, 4H3129-bA
T41 chain: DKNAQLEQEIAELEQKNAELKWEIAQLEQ

4H3172-bA = target: T42, 4H3172-bA
T42 chain: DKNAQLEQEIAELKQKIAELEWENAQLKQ

4H3414-bA = target: T43, 4H3414-bA
T43 chain: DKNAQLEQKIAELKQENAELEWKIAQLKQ

O8-bN = target: T44, O8-bN
T44 chain: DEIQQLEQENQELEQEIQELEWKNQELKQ

4H584-bA = target: T45, 4H584-bA
T45 chain: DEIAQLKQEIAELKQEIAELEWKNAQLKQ

4H3638-bA = target: T46, 4H3638-bA
T46 chain: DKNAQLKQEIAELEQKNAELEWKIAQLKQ

4H953-bA = target: T47, 4H953-bA
T47 chain: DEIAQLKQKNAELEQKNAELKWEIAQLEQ

4H570-bH = target: T48, 4H570-bH
T48 chain: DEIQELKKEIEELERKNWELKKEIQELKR

4H619-bA = target: T49, 4H619-bA
T49 chain: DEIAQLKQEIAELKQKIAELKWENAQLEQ

4H3631-bA = target: T50, 4H3631-bA
T50 chain: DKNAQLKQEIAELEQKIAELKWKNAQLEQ

O15 = target: T51, O15
T51 chain: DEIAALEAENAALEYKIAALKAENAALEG

4H850-bN = target: T52, 4H850-bN
T52 chain: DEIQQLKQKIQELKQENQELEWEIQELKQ

4H570-bN = target: T53, 4H570-bN
T53 chain: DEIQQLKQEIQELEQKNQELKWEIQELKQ

4H3858-bN = target: T54, 4H3858-bN
T54 chain: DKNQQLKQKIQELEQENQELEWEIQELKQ

4H3974-bN = target: T55, 4H3974-bN
T55 chain: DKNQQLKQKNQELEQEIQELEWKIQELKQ

P5A = target: T56, P5A
T56 chain: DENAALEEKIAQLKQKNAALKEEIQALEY

P8A = target: T57, P8A
T57 chain: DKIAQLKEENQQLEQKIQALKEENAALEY

P9A = target: T58, P9A
T58 chain: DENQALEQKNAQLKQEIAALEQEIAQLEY

P7A = target: T59, P7A
T59 chain: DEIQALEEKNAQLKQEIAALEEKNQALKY

P6A = target: T60, P6A
T60 chain: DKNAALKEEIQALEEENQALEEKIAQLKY

P4A = target: T61, P4A
T61 chain: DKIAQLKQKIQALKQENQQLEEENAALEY

B3: 4H363-bN (peptide)
chain: DEIQQLEQKIQELKQKIQELKWENQELEQ
- interaction score (4H363-bN): 0.903
- interaction score (4H3907-bN): 0.321
- interaction score (4H3961-bN): -0.162
- interaction score (4H470-bN): -0.702

B4: 4H1899-bA (peptide)
chain: DENAQLKQKIAELKQKIAELKWENAQLEQ
- interaction score (4H3497-bA): -0.482
- interaction score (4H3277-bA): -1.41
- interaction score (4H3175-bA): -1.03
- interaction score (4H3462-bA): -0.31
- interaction score (4H3628-bA): 0.582
- interaction score (4H3974-bA): -0.528
- interaction score (4H3298-bA): -0.142
- interaction score (4H1899-bA): -0.612
- interaction score (4H906-bA): -0.765
- interaction score (4H3858-bA): -0.565
- interaction score (4H3926-bA): -1.03
- interaction score (4H3162-bA): -1.28
- interaction score (4H3613-bA): -1.23
- interaction score (4H570-bA): 0.517
- interaction score (4H2586-bN): -1.99
- interaction score (4H626-bA): -1.38
- interaction score (4H1985-bA): 0.619
- interaction score (4H591-bA): -1.45
- interaction score (4H850-bA): -0.973
- interaction score (4H3817-bA): -0.216

B6: 4H1985-bA (peptide)
chain: DENAQLKQKNAELKQEIAELEWEIAQLEQ
- interaction score (4H3129-bA): -1.14
- interaction score (4H3172-bA): -0.781
- interaction score (4H3497-bA): -1.03
- interaction score (4H3277-bA): -0.983
- interaction score (4H3175-bA): -1.53
- interaction score (4H3462-bA): -0.708
- interaction score (4H3628-bA): -1.35
- interaction score (4H3974-bA): -0.265
- interaction score (4H3298-bA): -0.906
- interaction score (4H906-bA): -1.08
- interaction score (4H3414-bA): -1.09
- interaction score (4H3858-bA): -1.31
- interaction score (4H3926-bA): -1.07
- interaction score (4H3162-bA): -1.66
- interaction score (4H3613-bA): -1.14
- interaction score (4H570-bA): -1.97
- interaction score (O8-bN): -2.01
- interaction score (4H584-bA): -1.42
- interaction score (4H626-bA): -1.19
- interaction score (4H1985-bA): -0.898
- interaction score (4H3638-bA): -0.944
- interaction score (4H953-bA): -1.8
- interaction score (4H591-bA): -1.46
- interaction score (4H570-bH): -0.714
- interaction score (4H619-bA): -0.916
- interaction score (4H3631-bA): -1.21
- interaction score (4H850-bA): -1.45
- interaction score (4H3817-bA): -0.287

B9: P4A (peptide)
chain: DKIAQLKQKIQALKQENQQLEEENAALEY
- interaction score (P5A): -2.12
- interaction score (P8A): -1.42
- interaction score (P9A): -1.08
- interaction score (P7A): -2.13
- interaction score (P6A): -1.35
- interaction score (P4A): -2.18

Now from value to binder:

- interaction score (O3-bS): -1.15
- interaction score (O8-bS): -1.97
- interaction score (O16-bS): -1.23
- interaction score (O7-bS): -0.709
- interaction score (O5-bS): -3.22
- interaction score (O6-bS): -0.0299
- interaction score (O2-bS): -0.368
- interaction score (O4-bS): -0.194
B1: O16-bS (peptide)
chain: DKISQLKQKNSELKQEISELEWKNSQLKQ

- interaction score (P6mSN): 0.0393
- interaction score (P5mSN): -1.4
- interaction score (P7mSN): -0.763
- interaction score (P8mSN): -0.632
B2: P5mSN (peptide)
chain: DENSQLEEKISQLKQKNSELKEEIQQLEY

- interaction score (4H470-bH): -0.458
- interaction score (4H3907-bH): 0.462
- interaction score (4H4038-bH): -0.272
- interaction score (4H3961-bH): -0.402
B5: 4H3907-bH (peptide)
chain: DKNQELKKKIEELKREIWELEKENQELER

- interaction score (O15): -1.67
- interaction score (4H850-bN): -1.15
- interaction score (4H570-bN): 0.143
- interaction score (4H3858-bN): -0.115
- interaction score (4H3974-bN): -1.21
B7: 4H3858-bN (peptide)
chain: DKNQQLKQKIQELEQENQELEWEIQELKQ

- interaction score (4H4038-bH): 0.656
B8: 4H4038-bH (peptide)
chain: DKNQELKKKNEELKREIWELEKKIQELKR
